Experiment: soluble fraction after stress (log2 fold change); higher = more stays soluble; pooled small domains, quantitative proteomics
Details: stress: pH 4
Method in brief: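 Small protein domains from pooled custom libraries were exposed to pH 4, then quantified with high-throughput quantitative proteomics. The fold change in how much of each domain remains soluble is read as aggregation propensity. It is given as log2, with higher values meaning more stayed soluble.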

Sequence	soluble fraction (log2)
HMGQAELPYSEFLREVNNGQVKSVIIEGSEITGFYKTSGTSFNVIAPDDPKLVERLMAQGVEVRAQPA	0.239
HMRGDEDTGVWPTPMKRAYIDSLLKGYPTGVTMIVKPPGASHTTKWMILDGANRARALRDFMNDEFMI	-0.155
HMVQVPSLVGISEIEAKTLLTQAGFFVKIVEVFDANQPVGIVLAQAPSAGESRIIGSPVTITVNKAQ	-0.6
HMTGQEGLIGAHGVALTRLSNEEGEVKVQGEIWQARSDQEVAKGASIEVVHVDGLVLTVRPQH	0.175
HMKKLPDDANDIIERVSSRLAQKFRFGYHTIDDMKQQAALFAWEGIYDSWDDSRPLENFLWIHVRNRLYN	0.18
HMFIEPPSLEELERRLRGRGTETDDVVDMRMRTALVELSQKMEYDYRLVNDDLDEATRQLVAYVNEIAEQ	-0.679
HMSGPMVPNVVGLSEEMARALLSDYSITIKHAHDGVIPKDRVASQLPLATTHAKVGSSVVLTIS	0.238
HMEGLATRLRFLRQARGLSYHALARLSGVTHTALHQIEAGKNIPGLDTAEKIAMALDVDPRWFAYGRGDPS	-0.578
HMGYSDEIGEFIKKLRTENHLTQKEFADKYGVTYQAVSKWENGKNLPDMSLIKQMSEDFNIGIDELLDGEK	-0.454
HMALPDSEKRQWLVDEVNERGLKLPDDVLEYLFARVGRSQAHLVDVIEKLDFESLAQSRKLTIPFVREVLK	-0.753
HMIDAHTTLLAKRLESKGFLALTDKSSAEEIYEEFGISKKAFKKALGALYKERLVRIGEDGVVWM	-0.721
HMDDFGERLRKLRVAQDLTQQQLGEKLGVVPSTIGKYEKVKDSYPSIEVLIKLSDFFSVSTDYLLKG	-0.905
HMLAAGTSLTVDTESSNLNIRQEPSTEGVILGKAAKGEVVTLVEQSSDEWWKIKTKDGEEGYAYARYLR	0.0235
HMNVTIGESIKNVINHYGTPIYSYNPNNQEKYYEFHTNKGVLVVTAIGKKNTGYVTRVSMTY	-0.175
HMNKLKALREEQGLSMMEIAKQLNMPYTTYVNYEKGTREPNSEMLIKFSKFFNVTIDYLIGNSEQKN	-0.129
HMAVTFPYTAYATDAVRLRERPSSSADVLAVIRKGDAVLVTGTDGNYAIVDYEGKRGYVVSSFIAT	-0.159
HMEVPQKTLEILEPWRGRKGFLIPVLQAVQHEFGYVPKEAIETVSREMKMPTAEIYGVVTFYAQFH	-0.513
HMNLTLMDALKAAGLPVDGINLSMVNKMMEEQMPIDKTSLNQMYQLVQDNKDINVTTLVELKRLG	-0.393
HMSNENIDQDELQAIIQKVLASNQDAVAKYKAGKTAVIGFLIGQVMRQLNKKIDVALAKKTLLVFLEK	0.0782
HMGTLPSLAPSGEKTVRLPNLAGWSLRETMEILQKGGLQLLPIGSGISFKQSPPPGTTLNEGDAVTVWF	0.103
HMFYLPEPLTEQELRILGMLLDGRSNPEIAAELFIAVGTAKWHVHNILQKLGVANRAQAIVKAHELGLT	-1.88
HMKKEQVIVPNVVGDTYDVALRKLTDAKLKVGETFPADREGHQGVIEKQSPAAGETVDEDTPVALFFKV	-0.384
HMVDLEINGRQTLQFVANKYGIPVEKLATDLNIPSDRFGEKLGRLRRQYAFTMNDVRKSILKNK	0.215
HMFPELTDDEQLIVSTLAKTNDMQINMLAVRTGIPVQRMSALLFSLEMKGVVKMYAGGTYHLL	-0.0499
HMGGVTVQNRETHVNSTVNVRSEQTTESERVALAYQGDAITQIESYENGWSKVEYKGLSGYVMTEYL	-0.819

Sequence	soluble fraction (log2)
HMQPNVTRERILAAAMTVFAQKGWQKTSLDEVAAAAGMTKGAIYWHFRNKNDLFFALLDARLQRD	-1.08
HMSGFFVYPNPAKSNIIHFPNKKSFYIYDTSGRLLIEGKGKDFIDVSTLDRGVYLLKTFENDIVKIII	-0.585
HMKRIFEKKVVTESLNGLRLDKAAATLFADFSRNELGQWIKDEALLVNGKAKKVKEKVSEGDVLALDVELI	0.0389
HMTAMDTQQKKLIIMYHDIHRLRNVEHFTIQRIADHLLLNFRTVKKFLEMTQEEFDKFSENRW	-0.0481
HMSGQLTEEQVKQIVTTAVKNSSGSTLTAAEVSRIVSTAVANNLTADQVKTVVNNALAGITTDISTLKA	0.202
HMKALDTVLSEIPGLGPVRIKQLLKVFGSVDAIRKASLQDLQQIEGIGPKLAQTIYEYFHQP	-0.328
HMWMEKEELLWNDIIRGGVERGELREDTDIQEAAALFRQVFIGLAYQMSFSDGLDVGILRKRFHHIYGLLT	-2.16
HMDVQPHIYLRKLDQFWPADLHSLILYTLDGRRLWSADSGNIPALPHRASSLVILEATWDNGQRTRRKQFL	-0.116
HMLTSAQLAEIRQAVRAGQASVVEDLLKNGASPNFRMENGDTGFTYAVRADTPQVAEALLKSGKL	-0.00206
HMEDHMVVFGKGGRITRLPDKATVLEYLDAANFFASRSSVVKVNGKLASLDQTLRDGDSIEIVD	-0.473
HMTNQEFNEVFKLLLAAYPNTKDKESVATIYFLTIANELTKKEFAEAVVKILKTRKSGFIPQPAEILEVAK	-0.208
HMKKTTEFAVTPEFQQRLEASPELKAAFQALTPGRQRAHLLFFAAPKQAQTRQARIEKSLPQIMAGKGLN	-0.0768
HMGEVEVPDLVGIEAIQAKTLLFNSDFLIKEFYDYDPTQPIGVVIRQAPEAGTTQTIGDSVTITINRA	-0.0721
HMNVNALIGQEGIVIKEINSGSNKIGQVKISGDTWSAVTTNDFTNAIPVGSNVKILKIDGVNLIVEPVY	0.207
HMNTIIHPIRLAYVDSGSIKSMAEQAEIDVKILTSEANSQIFWAIGDEKQIDRLYNLISQVDIIQNK	-1.42
HMDAQNLQDQLFGFLKANPTQAYPAQTLADGLRLDDANAFTKVVQALAALERGGKVKVNEEGAFQYDAEK	-0.0669
HMTVTMADISQAYNEKRYLTTISLSNTYLTFAKPTTELLSIRYRTYFIIGKYAESLTEIAKL	0.22
HMGGKWKAIIIYHLKNGPKRFGELRRALISSTETVLSNQLKQLEQDGLVSRQVFGTKPPLKTVYSLTDFG	-0.906
HMGKMTSTLGVHIAAYRKEHGETVAQFASRSGVSVSSIRRIESGISDPSADLVWKISRHMGMTMDDLFKKM	-0.0972
HMAVRNTKQKQLVLSLLKNSGRPMTAGEIYRLAVQQYPNIAKSTVYRNLENLVSRGEVSQGMHQNGESFYS	≥ 0.43
HMSADKAEAAEASLKSFNLRLQAAAMEAGKTFAPVTADQYAEYKAAWGTYIRKGIEGLSESEKKTINVG	-0.167
HMHSRLEDIPGIGPRRRAMLLRHFGGLAELKAAGVEEIARVEGINMALAQRLWRALHGVPDPT	0.343
HMDNPVPVIITDQNFQPQLWKNVGVPTDTLFHELSAANQRKLENLMKTMIQTPLTDNGKISGYAFYSK	0.152
HMQISDTTELSTLITKVLSEQSDALVDFKNPKKQKQVIGYLTGQVLRASQGKANPGLVRSLLEEQLSALDS	0.0677
HMSREQARRFYFDTWAKHRASQPLTDLEKIALTVMLLHPEYHSLLDKPDHYVDKDYSPEAGQTNPFLHM	-0.474

Sequence	soluble fraction (log2)
HMSRQAPIGHRIRGRRKDIGMTQNALAKAAGISPSYLNLIEHNRRSIGGGLLMRIAAILDIHPHTL	0.0837
HMRKTLASTAYDSIKAGIVSGEINNNLLLSENTLAKILNMSRTPIREAIKRLEAESYLKSVDGVGLIVQE	-0.314
HMSSEASALRGWLQTSQYQGSVTLFANALNVPLKTVEDWVYGRSKPSLQHWSQLYEATGLPEYQQ	0.0888
HMKKTDFNVENYDIEELAAILNFKYVPLNQGLIRDRIKDMKQRFKNKPEYIKFFTDVEIKLVNNLNLFN	-1.01
HMSSIFTRIIAGEIPSYKVAEDENYYAFLDINPLTKGHTLVVPKMEVDYIFDLDDKTLAGMMLFAKKG	-0.455
HMASISDRIRLLRAESHMTQEEFGRIFGISKPTVSFYEHGKSVPNDQIKTAIARYFGVSVDYLLGVTD	-0.467
HMDPSHGESRENLDIMRIIDETHLEYPSWGYRKMTDHLRANHGYTINRKRVRRLMRLMDIIALFPG	-0.908
HMKIPYGELIKLLNAAAPKLQDAQGWMDMEAAGQFIGSRWSYLDYGFKDWPDSFKTVHGLEIQGQRMRLA	-0.306
HMDLGEQIIEKLRAAGGFLAITDKSPAEEIYELFATSKKNYKKAVGGLYKKGLLVIEDDGIRLTPAGR	≥ 0.43
HMGSGLAAAEKIRKAHPEIKIVVATSLIDTQVLARAKAVGADSLWYKDGDEGTLMQVVRRTMAGDHIFP	-0.366
HMEFPLSPHQYSVLRLMAQGLSNKQIAERLFLSENTVKGYVQEVLRRLGARNRLEAVMIANRRGWL	-0.606
HMPELTASDEADLKALVGGDQGFEQMANWARSNLGEEEINRFDAVVDSNNKDAIHMAIQAMQARMNA	-0.394
HMSNLVEVPAVIGRMKEDAITMLISAGLEPAVTYDEYPLVKENLVADQSVAPGQKVEKGSFVTITVSRS	0.22
HMSVHSAELKKLKAHLLGIIGRELETQPSTENREEMVRQILHQSYESLRLNLPMQLKEELFNEILAEVL	-0.689
HMVPEETKQFINQLNHGSLSIRMNAANNLEKLGLLAIPEIEAALPKAHGEAAFRLPRLLHALVLRETEYF	0.0598
HMEIDFDKINSIFNDANKLYEEGDYFEANNLYKNIVSSNIISKDLYYNLGLSYAKIGSNGYAILWYERALN	-0.215
HMWAQSVSLHGLLGRQALLIVDGKPPRAVAPGQTHLGVTVLSTDEDRAVVALAGGQRLTLRVGESPVSVG	0.264
HMGDRRSVFEQSVLDAIKSLVKQGELATTKAISDHIGTNYQGNVSRAITALLADNKIKKLPKEGVLQPYEA	-0.00881
HMFPATAPQLKAVHAILGKQGISDELDKLARVNEWLVGLNKEPVAAISELDKHTTSGLIDHLQGELNE	-0.131
HMDPDARQDAEVWLLDFLSAGPRTAQEIFTAARVEGHTRVTVKRAKATAGIQSVKQDFDGPWVWVLPGSG	-0.932
HMTFVHTQIEATKEWIISHPLDKHPAVAVVDSAGSIVIGEVDYISKSIVRLRFTAEFSGKAYL	-1.79
HMAVSSHAVKQRIRSLIQAEDPAAPLSDEALRLALSALGVDVSRRVIAKYRAELNIPSSSQRKK	0.213
HMKSEMYIDLSNALLKMSERDKELLTYRYTMEMSSKEISQITGIKESNVNSYIRRAREKLLKIFNAMNK	0.123
HMRRGKLGMASRLEQIPGIGPKKRKALLKAFGNSIDAIKSAPVEDLMKVKGINLVLAESIKEL	0.374
HMSVSEAELAEKYHADDLEALKSGKLHEFQENLIDRNGKKYTVQTMKDILTLSDGTRLLLGIGLD	-0.0916
